Results reported in patent US20250042944A1 (NATIONAL MARINE BIODIVERSITY INSTITUTE OF KOREA, published 2025).
Bridges are numbered along the chain shown (N, C = ends). Where no end group is shown, it is not given here.

T1: recombinant human vasopressin V1B receptor (human, UniProt P47901 1-424)
T1 sequence (looked up): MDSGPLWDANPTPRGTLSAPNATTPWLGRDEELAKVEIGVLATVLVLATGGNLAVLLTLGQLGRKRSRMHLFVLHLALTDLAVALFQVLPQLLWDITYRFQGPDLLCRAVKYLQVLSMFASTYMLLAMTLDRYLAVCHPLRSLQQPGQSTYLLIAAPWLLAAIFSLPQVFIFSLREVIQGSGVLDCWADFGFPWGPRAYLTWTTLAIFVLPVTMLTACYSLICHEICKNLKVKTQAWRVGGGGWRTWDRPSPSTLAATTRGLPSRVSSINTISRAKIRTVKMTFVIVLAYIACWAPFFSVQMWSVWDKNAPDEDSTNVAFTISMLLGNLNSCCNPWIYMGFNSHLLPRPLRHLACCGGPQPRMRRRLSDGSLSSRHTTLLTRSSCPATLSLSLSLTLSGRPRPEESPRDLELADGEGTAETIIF

T2: recombinant human oxytocin receptor (human, UniProt P30559 1-389)
T2 sequence (looked up): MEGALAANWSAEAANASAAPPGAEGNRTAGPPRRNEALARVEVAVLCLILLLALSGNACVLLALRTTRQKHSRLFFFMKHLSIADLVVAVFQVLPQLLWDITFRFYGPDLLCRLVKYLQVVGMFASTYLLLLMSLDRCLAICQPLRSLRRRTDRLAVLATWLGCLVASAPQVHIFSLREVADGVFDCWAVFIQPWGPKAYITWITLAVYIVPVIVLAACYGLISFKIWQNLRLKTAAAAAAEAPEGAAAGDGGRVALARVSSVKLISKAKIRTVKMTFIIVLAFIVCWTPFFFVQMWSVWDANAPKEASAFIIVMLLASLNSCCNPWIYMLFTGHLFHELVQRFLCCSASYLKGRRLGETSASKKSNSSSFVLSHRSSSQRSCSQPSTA


How the values were obtained:
Experiment in all cases: cell-based or functional assay
[1] = molecular target: recombinant human vasopressin V2 receptor (human, UniProt P30518 1-371)
[2] = molecular target: T1, recombinant human vasopressin V1B …
[3] = molecular target: T2, recombinant human oxytocin receptor

| EC50 of receptor activation (intracellular cAMP accumulation, HTRF, CHO cells) [1] | EC50 of receptor activation (intracellular calcium increase, calcium dye fluorescence imaging, RBL cells) [2] | IC50 of receptor inhibition (calcium response to 30 nM oxytocin, calcium dye fluorescence imaging, ECV304 cells) [3] | Binder |
| --- | --- | --- | --- |
| 42 nM | 0.94 nM | – | CYFRNCPAG-NH2 (disulfide 1-6; N-terminus assumed; SMILES C[C@H](NC(=O)[C@@H]1CCCN1C(=O)[C@@H]1CSSC[C@H](N)C(=O)N[C@@H](Cc2ccc(O)cc2)C(=O)N[C@@H](Cc2ccccc2)C(=O)N[C@@H](CCCNC(=N)N)C(=O)N[C@@H](CC(N)=O)C(=O)N1)C(=O)NCC(N)=O) [Squidtocin] |
| – | 214 nM | 16000 nM | CFFRNCPPG-NH2 (disulfide 1-6; N-terminus assumed; SMILES N=C(N)NCCC[C@@H]1NC(=O)[C@H](Cc2ccccc2)NC(=O)[C@H](Cc2ccccc2)NC(=O)[C@@H](N)CSSC[C@@H](C(=O)N2CCC[C@H]2C(=O)N2CCC[C@H]2C(=O)NCC(N)=O)NC(=O)[C@H](CC(N)=O)NC1=O) [Pro-sepiatocin] |
